This is an account of results in US20200325208A1 (IMMUNOWAKE, published 2020).

Broadly, the EC50 is the midpoint of the concentration-response curve. A low value points to greater potency.

B1: Human VEGF121/VEGF-A protein (human VEGF 121 isoform) with 6-His tag (ligand)
chain: APMAEGGGQNHHEVVKFMDVYQRSYCHPIETLVDIFQEYPDEIEYIFKPSCVPLMRCGGCCNDEGLECVPTEESNITMQIMRIKPHQGQHIGEMSFLQHNKCECRPKKDRARQEKCDKPRR
notes: range 27-147; Bought from Sino Biological; captured on the ELISA plate through an anti-His-tag antibody; not shown: 6-His tag

Read-outs that look alike come from different tables or passages of the source.

One experiment deals with T1, EGFR/LC-GS6-VEGFR-IgG1.
T1 construct: Cetuximab IgG1 with Flt1d2-Flk1d3 fused to the C-terminus of the light chains through the GS6 linker; Expressed in CHO cells
The experiment is described as follows: ELISA.

The target of experiment [1] is T2, tPD-L1/LC-GS6-VEGFR-nIgG1 (Homo sapiens (Human), UniProt P0DOX5 2-449 = IgG part).
T2 construct: Atezolizumab (de-glycosylated IgG1) with Flt1d2-Flk1d3 fused to the C-terminus of the light chains through the GS6 linker; Expressed in CHO cells
Kind of experiment: ELISA.

For another experiment, the target named is TNFα/LC-GS6-VEGFR-IgG1 (Homo sapiens (Human), UniProt P0DOX5 2-449 = IgG part). The experiment is described as follows: ELISA. A general note: An ELISA detects its analyte on a solid surface through an enzyme-linked reagent.
Experiment [2] concerns the target B1. The experiment is described as follows: ELISA, antigen captured by anti-His antibody on plate, HRP anti-IgG Fc detection.
Procedure: (§1) 96-well ELISA plates were coated with 100 μl His-tag antibody (capture antibody, 0.4 μg/ml) at room temperature (RT) overnight. The coated plates were washed with washing buffer (pH 7.4 PBS with 0.1% Tween 20) three times, and blocked with 3% BSA in washing buffer for 2 hours, at RT. […] After washing three times, VEGFR-antibody light chain fusion proteins of various concentrations in washing buffer containing 3% BSA were added to the coated plates, and let incubation for 2 hours at RT. Aflibercept (VEGFR-Fc fusion protein) and the corresponding parental full-length antibody were included as positive controls. […] After washing three times, HRP conjugated anti-gG Fc antibody (secondary antibody) was added (1:6000 dilution with 3% BSA in washing buffer), and incubated for 2 hours at RT. After washing four times, 100 μl HRP substrate was added to each well. After developing for 20 minutes, stop buffer was added to each well. Optical density (OD) of each well was measured immediately using a microplate reader at 450 nm. EC₅, was calculated if OD>2.0; otherwise, EC₅₀ was not calculated.
In a further experiment the target is T3, Human IL-17A protein (human, UniProt Q16552 24-155).
T3 construct: Purchased
The description is as above.

Experiment [3] concerns the target B1. The experiment is described as above. The source holds these as a separate data set.
Procedure: as §1
In another experiment the target is T4, Human PD-1 protein (human, UniProt Q15116 25-167, limits assumed).
T4 construct: Purchased
Described as above.

T3 sequence (Q16552 24-155 limits assumed): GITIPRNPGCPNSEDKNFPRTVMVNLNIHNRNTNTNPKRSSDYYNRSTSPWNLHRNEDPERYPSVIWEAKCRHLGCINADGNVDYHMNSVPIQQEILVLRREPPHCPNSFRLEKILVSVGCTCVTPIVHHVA
T4 sequence (Q15116 25-167 limits assumed): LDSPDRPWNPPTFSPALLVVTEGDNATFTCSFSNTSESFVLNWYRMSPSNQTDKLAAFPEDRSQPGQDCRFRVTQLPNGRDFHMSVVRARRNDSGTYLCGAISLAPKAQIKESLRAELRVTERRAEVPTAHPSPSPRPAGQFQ
Procedure for Human IL-17A protein: as §1
Procedure for Human PD-1 protein: as §1

On to B1, for which the binding result (with EGFR/LC-GS6-VEGFR-IgG1; in experiment [1]; with TNFα/LC-GS6-VEGFR-IgG1) was “binds” throughout.

B2: Nivolumab (e.g., Opdivo®) (antibody, human IgG4 S228P, kappa, V domains shown)
VH: QVQLVESGGGVVQPGRSLRLDCKASGITFSNSGMHWVRQAPGKGLEWVAVIWYDGSKRYYADSVKGRFTISRDNSKNTLFLQMNSLRAEDTAVYYCATNDDYWGQGTLVTVSS
VL: EIVLTQSPATLSLSPGERATLSCRASQSVSSYLAWYQQKPGQAPRLLIYDASNRATGIPARFSGSGSGTDFTLTISSLEPEDFAVYYCQQSSNWPRTFGQGTKVEIKR
notes: Parental full-length IgG4 antibody; also called anti-PD-1 antibody
Regarding B2, the binding result (in experiment [2]; with Human IL-17A protein) was “no binding” in each case.

B3: Durvalumab (e.g., IMFINZI™) (antibody, human IgG1, kappa, V domains shown)
VH: EVQLVESGGGLVQPGGSLRLSCAASGFTFSRYWMSWVRQAPGKGLEWVANIKQDGSEKYYVDSVKGRFTISRDNAKNSLYLQMNSLRAEDTAVYYCAREGGWFGELAFDYWGQGTLVTVSS
VL: EIVLTQSPGTLSLSPGERATLSCRASQRVSSSYLAWYQQKPGQAPRLLIYDASSRATGIPDRFSGSGSGTDFTLTISRLEPEDFAVYYCQQYGSLPWTFGQGTKVEIKR
notes: Parental full-length IgG1 kappa; also called MEDI4736; anti-PD-L1 antibody
B3: in experiment [3], the binding result was “no binding”.

B4: Pembrolizumab (e.g., Keytruda®) (antibody, human IgG4 S228P, kappa, V domains shown)
VH: QVQLVQSGVEVKKPGASVKVSCKASGYTFTNYYMYWVRQAPGQGLEWMGGINPSNGGTNFNEKFKNRVTLTTDSSTTTAYMELKSLQFDDTAVYYCARRDYRFDMGFDYWGQGTTVTVSS
VL: EIVLTQSPATLSLSPGERATLSCRASKGVSTSGYSYLHWYQQKPGQAPRLLIYLASYLESGVPARFSGSGSGTDFTLTISSLEPEDFAVYYCQHSRDLPLTFGGGTKVEIKR
notes: Parental full-length IgG4 antibody, used as the positive anti-PD-1 control; also called anti-PD-1 antibody
On to B4, for which the binding result (in experiment [2]; in the experiment with Human IL-17A protein) was “no binding” each time.

B5: Ixekizumab (e.g., Taltz®) (antibody, human IgG4 S228P, kappa, V domains shown)
VH: QVQLVQSGAEVKKPGSSVKVSCKASGYSFTDYHIHWVRQAPGQGLEWMGVINPMYGTTDYNQRFKGRVTITADESTSTAYMELSSLRSEDTAVYYCARYDYFTGTGVYWGQGTLVTVSS
VL: DIVMTQTPLSLSVTPGQPASISCRSSRSLVHSRGNTYLHWYLQKPGQSPQLLIYKVSNRFIGVPDRFSGSGSGTDFTLKISRVEAEDVGVYYCSQSTHLPFTFGQGTKLEIKR
notes: Parental full-length IgG4 antibody; also called anti-IL-17A antibody
B5: the binding result (in experiment [2]; with Human PD-1 protein) was “no binding” throughout. This molecule also displayed an EC50 with Human IL-17A protein of 1.1 nM.

B6: aPD-L1/LC-GS6-VEGFR-mIgG1 (other)
heavy: EVQLVESGGGLVQPGGSLRLSCAASGFTFSRYWMSWVRQAPGKGLEWVANIKQDGSEKYYVDSVKGRFTISRDNAKNSLYLQMNSLRAEDTAVYYCAREGGWFGELAFDYWGQGTLVTVSSASTKGPSVFPLAPSSKSTSGGTAALGCLVKDYFPEPVTVSWNSGALTSGVHTFPAVLQSSGLYSLSSVVTVPSSSLGTQTYICNVNHKPSNTKVDKRVEPKSCDKTHTCPPCPAPEFEGGPSVFLFPPKPKDTLMISRTPEVTCVVVDVSHEDPEVKFNWYVDGVEVHNAKTKPREEQYNSTYRVVSVLTVLHQDWLNGKEYKCKVSNKALPASIEKTISKAKGQPREPQVYTLPPSRDELTKNQVSLTCLVKGFYPSDIAVEWESNGQPENNYKTTPPVLDSDGSFFLYSKLTVDKSRWQQGNVFSCSVMHEALHNHYTQKSLSLSPGK
light: EIVLTQSPGTLSLSPGERATLSCRASQRVSSSYLAWYQQKPGQAPRLLIYDASSRATGIPDRFSGSGSGTDFTLTISRLEPEDFAVYYCQQYGSLPWTFGQGTKVEIKRTVAAPSVFIFPPSDEQLKSGTASVVCLLNNFYPREAKVQWKVDNALQSGNSQESVTEQDSKDSTYSLSSTLTLSKADYEKHKVYACEVTHQGLSSPVTKSFNRGECTGGGGSGGGGSGGGGSGGGGSGGGGSGGGGSTGSDTGRPFVEMYSEIPEIIHMTEGRELVIPCRVTSPNITVTLKKFPLDTLIPDGKRIIWDSRKGFIISNATYKEIGLLTCEATVNGHLYKTNYLTHRQTNTIIDVVLSPSHGIELSVGEKLVLNCTARTELNVGIDFNWEYPSSKHQHKKLVLSPVNRDLKTQSGSEMKKFLSTLTIDGVTRSDQGLYTCAASSGLMTKKNSTFVRVHEK
notes: Durvalumab (Fc-mutated IgG1) with Flt1d2-Flk1d3 fused to the C-terminus of the light chains through the GS6 linker; Expressed in CHO cells
Consider B6, for which the midpoint of the response in experiment [3], the EC50, lay at 34.5 nM.
